From the supplement of paper PMC11246515
± gives the standard deviation of the averaged measurements.

Assay: total protein half-life in vivo (active degradation + dilution); higher = more stable protein
[1] = E. coli NCM3722 delta-clpP delta-lon delta-hslV, growth: N-lim chemostat, doubling time 6 h
[2] = E. coli NCM3722 delta-clpP, growth: N-lim chemostat, doubling time 6 h
[3] = E. coli NCM3722 delta-hslV, growth: N-lim chemostat, doubling time 6 h
[4] = E. coli NCM3722 delta-lon, growth: N-lim chemostat, doubling time 6 h
[5] = E. coli NCM3722 delta-smpB, growth: N-lim chemostat, doubling time 6 h
[6] = wild type E. coli NCM3722, growth: C-lim chemostat, doubling time 3 h
[7] = wild type E. coli NCM3722, growth: C-lim chemostat, doubling time 6 h
[8] = wild type E. coli NCM3722, growth: C-lim chemostat, doubling time 12 h
[9] = wild type E. coli NCM3722, growth: N-lim chemostat, doubling time 6 h
[10] = wild type E. coli NCM3722, growth: N-lim chemostat, doubling time 12 h
[11] = wild type E. coli NCM3722, growth: P-lim chemostat, doubling time 6 h
[12] = wild type E. coli NCM3722, growth: P-lim chemostat, doubling time 12 h

Sequence	total protein half-life in vivo [1] [h]	total protein half-life in vivo [2] [h]	total protein half-life in vivo [3] [h]	total protein half-life in vivo [4] [h]	total protein half-life in vivo [5] [h]	total protein half-life in vivo [6] [h]	total protein half-life in vivo [7] [h]	total protein half-life in vivo [8] [h]	total protein half-life in vivo [9] [h]	total protein half-life in vivo [10] [h]	total protein half-life in vivo [11] [h]	total protein half-life in vivo [12] [h]
MKNVGFIGWRGMVGSVLMQRMVEERDFDAIRPVFFSTSQLGQAAPSFGGTTGTLQDAFDLEALKALDIIVTCQGGDYTNEIYPKLRESGWQGYWIDAASSLRMKDDAIIILDPVNQDVITDGLNNGIRTFVGGNCTVSLMLMSLGGLFANDLVDWVSVATYQAASGGGARHMRELLTQMGHLYGHVADELATPSSAILDIERKVTTLTRSGELPVDNFGVPLAGSLIPWIDKQLDNGQSREEWKGQAETNKILNTSSVIPVDGLCVRVGALRCHSQAFTIKLKKDVSIPTVEELLAAHNPWAKVVPNDREITMRELTPAAVTGTLTTPVGRLRKLNMGPEFLSAFTVGDQLLWGAAEPLRRMLRQLA [P0A9Q9]	4.6 ± 1.1	3.96 ± 0.59	3.75 ± 0.11	4.54 ± 0.57	3.49 ± 0.27	2.97 ± 0.19	5.55 ± 0.092	9.4 ± 0.89	3.76 ± 0.22	5.831 ± 0.054	5.76 ± 0.3	11 ± 1.3
MIIPALDLIDGTVVRLHQGDYGKQRDYGNDPLPRLQDYAAQGAEVLHLVDLTGAKDPAKRQIPLIKTLVAGVNVPVQVGGGVRSEEDVAALLEAGVARVVVGSTAVKSQDMVKGWFERFGADALVLALDVRIDEQGNKQVAVSGWQENSGVSLEQLVETYLPVGLKHVLCTDISRDGTLAGSNVSLYEEVCARYPQVAFQSSGGIGDIDDVAALRGTGVRGVIVGRALLEGKFTVKEAIACWQNA	4.64 ± 0.11	3.46 ± 0.32	4.07 ± 0.29	4.52 ± 0.096	3.23 ± 0.34	3.21 ± 0.094	5.72 ± 0.66	10 ± 1.4	3.66 ± 0.097	5.29 ± 0.65	5.28 ± 0.072	9.43 ± 0.71
MLNYVIKRLLGLIPTLFIVSVLVFLFVHMLPGDPARLIAGPEADAQVIELVRQQLGLDQPLYHQFWHYISNAVQGDFGLSMVSRRPVADEIASRFMPTLWLTITSMVWAVIFGMAAGIIAAVWRNRWPDRLSMTIAVSGISFPAFALGMLLIQVFSVELGWLPTVGADSWQHYILPSLTLGAAVAAVMARFTRASFVDVLSEDYMRTARAKGVSETWVVLKHGLRNAMIPVVTMMGLQFGFLLGGSIVVEKVFNWPGLGRLLVDSVEMRDYPVIQAEILLFSLEFILINLVVDVLYAAINPAIRYK	6.23 ± 0.21	5.94 ± 1	6.89 ± 0.77	6.12 ± 1.5	5.48 ± 0.069	3.13 ± 0.44	6.58 ± 0.59	11.4 ± 1.1	5.84 ± 0.41	11.1 ± 0.85	5.68	12.6 ± 1.1
MDIPVNAAKPGRRRYLTLVMIFITVVICYVDRANLAVASAHIQEEFGITKAEMGYVFSAFAWLYTLCQIPGGWFLDRVGSRVTYFIAIFGWSVATLFQGFATGLMSLIGLRAITGIFEAPAFPTNNRMVTSWFPEHERASAVGFYTSGQFVGLAFLTPLLIWIQEMLSWHWVFIVTGGIGIIWSLIWFKVYQPPRLTKGISKAELDYIRDGGGLVDGDAPVKKEARQPLTAKDWKLVFHRKLIGVYLGQFAVASTLWFFLTWFPNYLTQEKGITALKAGFMTTVPFLAAFVGVLLSGWVADLLVRKGFSLGFARKTPIICGLLISTCIMGANYTNDPMMIMCLMALAFFGNGFASITWSLVSSLAPMRLIGLTGGVFNFAGGLGGITVPLVVGYLAQGYGFAPALVYISAVALIGALSYILLVGDVKRVG [P0AA76]							4.54 ± 0.49	7.29 ± 0.43				
MLKPEMIEKLNEQMNLELYSSLLYQQMSAWCSYHTFEGAAAFLRRHAQEEMTHMQRLFDYLTDTGNLPRINTVESPFAEYSSLDELFQETYKHEQLITQKINELAHAAMTNQDYPTFNFLQWYVSEQHEEEKLFKSIIDKLSLAGKSGEGLYFIDKELSTLDTQN [P0A998]	5.44 ± 1.7	3.41 ± 0.55	3.94 ± 1.3	4.12 ± 0.86	3.38 ± 1.6		5.8 ± 0.56		3.33 ± 0.25	4.479 ± 0.025	4.92 ± 0.45	10.6 ± 0.44
MLSIKDLHVSVEDKAILRGLSLDVHPGEVHAIMGPNGSGKSTLSATLAGREDYEVTGGTVEFKGKDLLALSPEDRAGEGIFMAFQYPVEIPGVSNQFFLQTALNAVRSYRGQETLDRFDFQDLMEEKIALLKMPEDLLTRSVNVGFSGGEKKRNDILQMAVLEPELCILDESDSGLDIDALKVVADGVNSLRDGKRSFIIVTHYQRILDYIKPDYVHVLYQGRIVKSGDFTLVKQLEEQGYGWLTEQQ	4.81 ± 0.069	5.52 ± 1.8	4.19 ± 0.79	4.25 ± 0.1	3.63 ± 0.052	2.88 ± 0.13	5.37 ± 0.23	10.1 ± 0.62	3.75 ± 0.3	5.68 ± 0.23	5.47 ± 0.51	9.75 ± 0.2
MSKATEQNDKLKRAIIISAVLHVILFAALIWSSFDENIEASAGGGGGSSIDAVMVDSGAVVEQYKRMQSQESSAKRSDEQRKMKEQQAAEELREKQAAEQERLKQLEKERLAAQEQKKQAEEAAKQAELKQKQAEEAAAKAAADAKAKAEADAKAAEEAAKKAAADAKKKAEAEAAKAAAEAQKKAEAAAAALKKKAEAAEAAAAEARKKAATEAAEKAKAEAEKKAAAEKAAADKKAAAEKAAADKKAAEKAAAEKAAADKKAAAEKAAADKKAAAAKAAAEKAAAAKAAAEADDIFGELSSGKNAPKTGGGAKGNNASPAGSGNTKNNGASGADINNYAGQIKSAIESKFYDASSYAGKTCTLRIKLAPDGMLLDIKPEGGDPALCQAALAAAKLAKIPKPPSQAVYEVFKNAPLDFKP		6.28 ± 0.72	6.23 ± 0.21		5.79 ± 0.58	3.23 ± 0.71	6.022 ± 0.019	11.6 ± 1.8	5.85 ± 0.2	12.7 ± 1.3	5.49 ± 0.21	12.3 ± 0.83
MIRVACVGITVMDRIYYVEGLPTESGKYVARNYTEVGGGPAATAAVAAARLGAQVDFIGRVGDDDTGNSLLAELESWGVNTRYTKRYNQAKSSQSAIMVDTKGERIIINYPSPDLLPDAEWLEEIDFSQWDVVLADVRWHDGAKKAFTLARQAGVMTVLDGDITPQDISELVALSDHAAFSEPGLARLTGVKEMASALKQAQTLTNGHVYVTQGSAGCDWLENGGRQHQPAFKVDVVDTTGAGDVFHGALAVALATSGDLAESVRFASGVAALKCTRPGGRAGIPDCDQTRSFLSLFV	6.62 ± 1.4					2.49 ± 0.19	5.95 ± 1.4	7.92 ± 0.52				
MRFLLGVLMLMISGSALATIDVLQFKDEAQEQQFRQLTEELRCPKCQNNSIADSNSMIATDLRQKVYELMQEGKSKKEIVDYMVARYGNFVTYDPPLTPLTVLLWVLPVVAIGIGGWVIYARSRRRVRVVPEAFPEQSVPEGKRAGYVVYLPGIVVALIVAGVSYYQTGNYQQVKIWQQATAQAPALLDRALDPKADPLNEEEMSRLALGMRTQLQKNPGDIEGWIMLGRVGMALGNASIATDAYATAYRLDPKNSDAALGYAEALTRSSDPNDNRLGGELLRQLVRTDHSNIRVLSMYAFNAFEQQRFGEAVAAWEMMLKLLPANDTRRAVIERSIAQAMQHLSPQESK [P0ABM9]	3.85 ± 0.42		3.5 ± 0.5		3.32 ± 0.057	3.26 ± 0.15		9.451 ± 0.016	3.8 ± 0.21	5.979 ± 0.034	3.91 ± 0.59	6.58 ± 1.2
MSLSRRQFIQASGIALCAGAVPLKASAAGQQQPLPVPPLLESRRGQPLFMTVQRAHWSFTPGTRASVWGINGRYLGPTIRVWKGDDVKLIYSNRLTENVSMTVAGLQVPGPLMGGPARMMSPNADWAPVLPIRQNAATLWYHANTPNRTAQQVYNGLAGMWLVEDEVSKSLPIPNHYGVDDFPVIIQDKRLDNFGTPEYNEPGSGGFVGDTLLVNGVQSPYVEVSRGWVRLRLLNASNSRRYQLQMNDGRPLHVISGDQGFLPAPVSVKQLSLAPGERREILVDMSNGDEVSITCGEAASIVDRIRGFFEPSSILVSTLVLTLRPTGLLPLVTDSLPMRLLPTEIMAGSPIRSRDISLGDDPGINGQLWDVNRIDVTAQQGTWERWTVRADEPQAFHIEGVMFQIRNVNGAMPFPEDRGWKDTVWVDGQVELLVYFGQPSWAHFPFYFNSQTLEMADRGSIGQLLVNPVP	6.39 ± 0.28	6.3 ± 0.19	6.17 ± 0.57	6.21 ± 0.34	6.12 ± 0.66	3.28 ± 0.037	6.047 ± 0.037	11.19 ± 0.06	6.13 ± 0.41	13.5 ± 0.45	5.88 ± 0.35	12.5 ± 0.35
MEQVVIVDAIRTPMGRSKGGAFRNVRAEDLSAHLMRSLLARNPALEAAALDDIYWGCVQQTLEQGFNIARNAALLAEVPHSVPAVTVNRLCGSSMQALHDAARMIMTGDAQACLVGGVEHMGHVPMSHGVDFHPGLSRNVAKAAGMMGLTAEMLARMHGISREMQDAFAARSHARAWAATQSAAFKNEIIPTGGHDADGVLKQFNYDEVIRPETTVEALATLRPAFDPVNGMVTAGTSSALSDGAAAMLVMSESRAHELGLKPRARVRSMAVVGCDPSIMGYGPVPASKLALKKAGLSASDIGVFEMNEAFAAQILPCIKDLGLIEQIDEKINLNGGAIALGHPLGCSGARISTTLLNLMERKDVQFGLATMCIGLGQGIATVFERV	4.38 ± 0.27	3.05 ± 0.081	2.922 ± 0.023	2.52 ± 0.046	3.22 ± 0.013	3.36 ± 0.57	5 ± 0.57	9.67 ± 0.97	3.18 ± 0.39	4.39 ± 0.12	5.97 ± 0.56	11.5 ± 0.95
MMINVQTVAVIGSGTMGAGIAEVAASHGHQVLLYDISAEALTRAIDGIHARLNSRVTRGKLTAETCERTLKRLIPVTDIHALAAADLVIEAASERLEVKKALFAQLAEVCPPQTLLTTNTSSISITAIAAEIKNPERVAGLHFFNPAPVMKLVEVVSGLATAAEVVEQLCELTLSWGKQPVRCHSTPGFIVNRVARPYYSEAWRALEEQVAAPEVIDAALRDGAGFPMGPLELTDLIGQDVNFAVTCSVFNAFWQERRFLPSLVQQELVIGGRLGKKSGLGVYDWRAEREAVVGLEAVSDSFSPMKVEKKSDGVTEIDDVLLIETQGETAQALAIRLARPVVVIDKMAGKVVTIAAAAVNPDSATRKAIYYLQQQGKTVLQIADYPGMLIWRTVAMIINEALDALQKGVASEQDIDTAMRLGVNYPYGPLAWGAQLGWQRILRLLENLQHHYGEERYRPCSLLRQRALLESGYES	> 8											
MRIPRIYHPEPLTSHSHIALCEDAANHIGRVLRMGPGQALQLFDGSNQVFDAEITSASKKSVEVKVLEGQIDDRESPLHIHLGQVMSRGEKMEFTIQKSIELGVSLITPLFSERCGVKLDSERLNKKLQQWQKIAIAACEQCGRNRVPEIRPAMDLEAWCAEQDEGLKLNLHPRASNSINTLPLPVERVRLLIGPEGGLSADEIAMTARYQFTDILLGPRVLRTETTALTAITALQVRFGDLG [P0AGL7]		5.91 ± 0.64	5.44 ± 0.24	5.41 ± 0.067	5.19 ± 0.13	2.98 ± 0.25	6.14 ± 1.9	10.1 ± 2.1	5.45 ± 0.37	10.7 ± 0.42	6.05 ± 0.38	12.31 ± 0.12
MDLTQLEMFNAVAEAGSITQAAAKVHRVPSNLTTRLRQLETELGVDLFIRENQRLRLSPAGHNFLRYSQQILALVDEARSVVAGDEPQGLFSLGSLESTAAVRIPATLAEFNRRYPKIQFSLSTGPSGTMLDGVLEGKLNAAFIDGPINHTAIDGIPVYREELMIVTPQGYAPVTRASQVNGSNIYAFRANCSYRRHFESWFHADGAAPGTIHEMESYHGMLACVIAGAGIALIPRSMLESMPGHHQVEAWPLAEQWRWLTTWLVWRRGAKTRPLEAFIQLLDVPDSARQGYQ	> 8	5.2	4.72	4.66	4.76	2.76		8.27		12.1 ± 2.1	6.44 ± 1	10.7 ± 2.1
